Source: article PMC4300165, “Highly thermostable GH39 β-xylosidase from a Geobacillus sp. strain WSUCF1” (BMC Biotechnology, 2014)
Each block holds one molecule with its values, some of them ahead of it.

What was measured:
WSUCF1 β-xylosidase = target: T1, WSUCF1 β-xylosidase (Geobacillus zalihae, UniProt A0A7H1RXW2); experiment: residual pNPX hydrolysis with added xylose; assay type: biochemical; conditions: pNPX 2.5 mg/ml stock as substrate, phosphate buffer pH 6.5, 70°C, 10 min; end-product inhibition
T1 construct: gene IC807_05610; full-length ORF of 1509 bp (about 502 residues); N-His SUMO fusion expressed in E. coli, tag cleaved with SUMO protease; 58 kDa, apparent tetramer of 230 kDa
T1 sequence (A0A7H1RXW2 2-503): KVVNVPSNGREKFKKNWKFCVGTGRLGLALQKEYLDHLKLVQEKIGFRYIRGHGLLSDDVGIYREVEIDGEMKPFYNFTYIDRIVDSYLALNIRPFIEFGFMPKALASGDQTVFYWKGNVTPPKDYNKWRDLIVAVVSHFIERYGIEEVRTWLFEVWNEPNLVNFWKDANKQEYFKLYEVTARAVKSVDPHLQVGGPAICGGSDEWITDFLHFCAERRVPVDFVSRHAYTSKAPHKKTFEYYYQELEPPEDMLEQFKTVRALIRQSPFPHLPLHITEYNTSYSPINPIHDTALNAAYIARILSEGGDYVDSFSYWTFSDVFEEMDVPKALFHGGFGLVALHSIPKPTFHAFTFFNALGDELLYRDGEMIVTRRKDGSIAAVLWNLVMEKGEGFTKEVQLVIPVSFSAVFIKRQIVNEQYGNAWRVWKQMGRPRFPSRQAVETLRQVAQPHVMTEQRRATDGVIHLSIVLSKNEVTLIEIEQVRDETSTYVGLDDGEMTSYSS

[1] = target: WSUCF1 β-xylosidase (GH39 β-xylosidase from Geobacillus sp. strain WSUCF1) (Geobacillus sp. strain WSUCF1); experiment: SDS-PAGE without heat treatment, with zymogram; purified enzyme mixed with 2X SDS sample buffer, loaded on an 8-16% gradient SDS-PAGE gel without heating (230 kDa, active) or after 95°C for 2 min (58 kDa, inactive); tetramer inferred from the 4-fold increase in apparent mass
purified protein = substrate: O=[N+]([O-])c1ccc(O[C@@H]2OC[C@@H](O)[C@H](O)[C@H]2O)cc1; experiment: purified protein; assay type: biochemical, Geobacillus zalihae; conditions: 50 mM phosphate buffer pH 6.5, 70°C, 0–15 mM substrate, Table 2 prints 2.3

- % activity retained at 300 mM (WSUCF1 β-xylosidase): 50%
Molecule: OC1OC[C@@H](O)[C@H](O)[C@H]1O (stereo partly drawn) [xylose]

- stoichiometry N [1]: 4
Molecule: WSUCF1 β-xylosidase (GH39 β-xylosidase from Geobacillus sp. strain WSUCF1) (enzyme)

B1: WSUCF1 β-xylosidase (Geobacillus zalihae) (protein)
chain: KVVNVPSNGREKFKKNWKFCVGTGRLGLALQKEYLDHLKLVQEKIGFRYIRGHGLLSDDVGIYREVEIDGEMKPFYNFTYIDRIVDSYLALNIRPFIEFGFMPKALASGDQTVFYWKGNVTPPKDYNKWRDLIVAVVSHFIERYGIEEVRTWLFEVWNEPNLVNFWKDANKQEYFKLYEVTARAVKSVDPHLQVGGPAICGGSDEWITDFLHFCAERRVPVDFVSRHAYTSKAPHKKTFEYYYQELEPPEDMLEQFKTVRALIRQSPFPHLPLHITEYNTSYSPINPIHDTALNAAYIARILSEGGDYVDSFSYWTFSDVFEEMDVPKALFHGGFGLVALHSIPKPTFHAFTFFNALGDELLYRDGEMIVTRRKDGSIAAVLWNLVMEKGEGFTKEVQLVIPVSFSAVFIKRQIVNEQYGNAWRVWKQMGRPRFPSRQAVETLRQVAQPHVMTEQRRATDGVIHLSIVLSKNEVTLIEIEQVRDETSTYVGLDDGEMTSYSS
notes: full-length ORF of 1509 bp (about 502 residues); N-His SUMO fusion expressed in E. coli, tag cleaved with SUMO protease; 58 kDa, apparent tetramer of 230 kDa
- Km (purified protein): 2.38 mM
